A short description of the data set: yeast display, Sf9 membrane polyspecificity reagent, FACS + sequencing; frameworks hold sequencing errors. In outline:
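Nanobodies from a synthetic yeast display library (Saccharomyces cerevisiae BJ5465), induced 36–48 hours with galactose, were stained 1 hour at 4 °C with 10% biotinylated, detergent-solubilized Sf9 membrane reagent, enriched on streptavidin microbeads, then FACS-sorted. Anti-HA (expression) and streptavidin (reagent binding) fluorescence set low and high (top ~1%) gates. Polyreactivity labels come from the gate of origin. Genes were colony-PCR amplified, MiSeq 2 × 250 sequenced and filtered by CDR length.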
For “QVQLVESGGGFVQAGGSLRLSCAPSGRIFLRNDMGWYRQAPGKEREWVAGISWRGGRTYYADAVKGRFTISRDNAKNTVYLQMNSLKPEDTAVYYCNADKDETSGGKYDSWGQGTQVTVSS”, the “polyreactivity (PSR sort gate)” value was “low polyreactivity”.
In the case of “QVQLVESGGGFVQAGGSLRLSSAASGRTFDTNAMGWYRQSPGKERELVAAISWSAGRTYYADSVKGRFTISRDNAKNTVYLQMNSLKPEDTAVYYCAADSFTPDYYSHDYCGQGTQVTVSS”, the “polyreactivity (PSR sort gate)” value was “low polyreactivity”.
As for “QVQLVESGGGFVQAGGSLSLSCAASGFTFRRYAMGWYRQAPGKERELVAAITSGGSTNYADSVKGRFTISRDNAKNTVYLQMNSLKPEDTAVYYCNARAGYERYGYWGQGTQVTVSS”, the “polyreactivity (PSR sort gate)” value is given as “high polyreactivity”.
For “QVQLVESGGGFVQAGGSVRLSCAASGRIFKYAMGWYIPAPGKERELVAAITHKGGSTYADSEKGRFTISRDNAKTTVYIQLNSRKPEDTAVYYCAAYYYYGKGYRRFDYWGQGTQVTVSS” the value was “low polyreactivity”; for “QVQLVESGGGFVQAGVSLRLSCAASGSIFVVYGMGWYRQAPGKERELVAAISGGITNYADSVKGLFTISRDNAKNTVYLLMNSLKPEDTAVYYCATVDGAYQYTYDYWGQGTQVTVSS”, “low polyreactivity”; for “QVQLVESGGGIDKAGGSLRLSCAPSGGIFIRYAMGWYRQAPGKERELVAGIDSGGGTKYADSVKGRFTISRDNAKNTVYLQMNSLKPEDTAVYYCNGEVSVWPFSYDYWGQGTQVTVSS”, “low polyreactivity”.
As for “QVQLVESGGGIDQAGGSLRLRCAASGFIFRYYAMGWYRLAPGKESELVAVISASGGSTYYADSVKGRFTISRDNAKKTVYLQMNSRKPEDTAVYYCNTKRYFFHRGDMDYWGQGTQVTVSS”, the “polyreactivity (PSR sort gate)” value is recorded as “high polyreactivity”.
With “QVQLVESGGGIDQAGGSLRLSCAASGFIFTNYAMGWYRQAPGKERELVAAITRRGGGTYYADSVKGRFTISRDNAKKTVYVQMNSLKPEDTAVYYCAKYSRLVTANDYDYWGQGTQVTVSS”, the “polyreactivity (PSR sort gate)” value is “high polyreactivity”.
Regarding “QVQLVESGGGIDQAGGSLRLSCAASGNTFYWYAMGWYRQAPGKERDLVAAISRGGRTNYADSVKGRFTISRDNAKNTVYLQMNSLKPEDTAVYFCAKDSNYPQPSKGWYRYDYWGLGTQVTVSS”, the “polyreactivity (PSR sort gate)” value was “high polyreactivity”.
Consider “QVQLVESGGGIDQAGGSLRLSCAASGRTFTSNAMGWYRQAPGKERELVAVIDRSGTSTYYADSVKGRFTISRDNAKNTVYLQMNSLKPEDTAVYYCAVRVRYSYTSRAKMYYWGQGTQVTVSS”, for which the “polyreactivity (PSR sort gate)” value was “high polyreactivity”.
For the sequence “QVQLVESGGGIVEAGGSLRLSCAASGRIFNQYAMGWYRQAPGKEREFVAAIRWSGGRTYYADSVKGRFTISRDNAKNTVYLQMNRLKPEDTAVYYCAADLYGNNYWDGTTGYDYWGQGTQVTVSS”, the “polyreactivity (PSR sort gate)” value is recorded as “low polyreactivity”.
As to “QVQLVESGGGIVEAGGSLRLSCAASGSTYYWNAMVWYIQAPGKERELVAAISRDGSTYYADSVNGRFTISRDNAKKTVYLHMNCLKPEVTAVYYCAKACVTNVVVVDSVFAYDYWGQGTIVTVSS”, the “polyreactivity (PSR sort gate)” value is reported as “low polyreactivity”.
With “QVQLVESGGGIVKAGGSLRLSCAPSGSTFDYYTMGWYRQAPGKERELVAAISRSGGSTRYADSVKGRFTISRDNAKNTVDLQMNSLKPEDTAVYYCAAGARQGVYRGGDYWGQGTQVTVSS”, the “polyreactivity (PSR sort gate)” value was “low polyreactivity”.
In the case of “QVQLVESGGGIVQAGCSLRLICAASGRIFYSNYMGWYRQAPGKERELVAAISSSGGSTYYADSLKGRFTISRDNANNTVYLQMNSLKPEDTAVYYCNAVHARYRSQGDYWGQGTQVTVSS”, the “polyreactivity (PSR sort gate)” value is reported as “low polyreactivity”.
As to “QVQLVESGGGIVQAGCSLRLSCAASGRTFSWNSMGWYRQAPGKERELVAAITYSGGNTYYADSVKGRFSISRDNAKNTVYLQMNSLKQEDTAVYYCAKFGVTGQGSWSQRMGYWGQGTQVTVSS”, the “polyreactivity (PSR sort gate)” value is listed as “high polyreactivity”.
In the case of “QVQLVESGGGIVQAGGILRLTGAASVITNTSYAMGWYRQAPGKERELVAAISSSGVRTYYADSVKGRFTISRDNAKNTVYLQLNSLKPEDTAVYYCATRRRVLFGYDYWGQGTQVTVSS”, the “polyreactivity (PSR sort gate)” value is “high polyreactivity”.
For “QVQLVESGGGIVQAGGRHRLSCAASGRTFWRNPMGWYSPAPGKERELVASIRITGGSTYYADSVMGRFTISRDNAKTTVYLQMNSLNAEDTAVYYCPASSGIRFVGLSYPIGNYYYWGQGSQVTVSS” the value was “high polyreactivity”; for “QVQLVESGGGIVQAGGRLRLSCAASGFTCARNVMGWYRQAPGKERELVAAITTSGGSTYYADSVKGRFTISRDNAKNTVSLQMNSLKPEDTAGYYCARRVYGYYIPYNYWGQGTQVTVSS”, “high polyreactivity”; for “QVQLVESGGGIVQAGGRLRLSCDASGSTFSRYTMGWYRQAPGKEREFVAAIRTSGGRTYEDSVKGRFTISRDNAKNTVYVQMNSLKPEDTAVYYCAATRYYGYNTKYEYWGQGTQVTVSS”, “high polyreactivity”.
Consider “QVQLVESGGGIVQAGGSHRLSCAASGSIFVSNAMGWYRQAPGKERELVAAISQSGGSTYYADSVKGRFTISRDTAKNTVYLQMNSLNPEDTAVYYCATPIRSGFRIYDYWGQGTQVTVSS”, for which the “polyreactivity (PSR sort gate)” value is “low polyreactivity”.
For the sequence “QVQLVESGGGIVQAGGSHRLSCAASGYIFKPNHMGWYRQAPGIDRELVAAISKSRGTTYYADSVKGRFTISRDNAKNTVYLQMNGLKPEDTAVYFCGGVRRYHSYPDGGYWGQGSQVTVSS”, the “polyreactivity (PSR sort gate)” value is “high polyreactivity”.
For “QVQLVESGGGIVQAGGSLLLSCAASGSTIIRYVKGWYRQAPGTERELVAGINSSAGSTNYADSVKGRFTISRDNAKNTVYLQMISLKPEDTAVYYCNADLRSEYDYWGQGTQVTVSS”, the “polyreactivity (PSR sort gate)” value is given as “low polyreactivity”.
As for “QVQLVESGGGIVQAGGSLRISCAASGIIFQYYVMGWYRQAPGKESELVAAIEKSGGSTYYADSLKGRFTISRDYAKNTVYLQMNSLNPDDTAVYYCAATSYAHKYYGYFGAIKYEYWGQGTQVTVSS”, the “polyreactivity (PSR sort gate)” value is “low polyreactivity”.
“QVQLVESGGGIVQAGGSLRKSCAASGFTFDENAMGWYRQAPGINYSGASTYYADSVKGRFTISRDNAKNTVYLQMNSLKPEDTAVYYCAAEVVAQMNYWGQGTQVTVSS”: the “polyreactivity (PSR sort gate)” value was “low polyreactivity”.
For the sequence “QVQLVESGGGIVQAGGSLRLICAASGSIFDVNALGWYSQAPGKERELVAAITWSGGNTYYADSVKGRFTISRDNAKNNFYLQMYSLKPEDTAVYYCNVYVSAGEEDEYWGQVTQVTVSS”, the “polyreactivity (PSR sort gate)” value is recorded as “low polyreactivity”.
For “QVQLVESGGGIVQAGGSLRLICAASGYTFNYYAMGWYRQAPGKEREFVASTYADSVKGRFTISRDNAKNTVYLQMNSLKPEDTAVYYCNARNLGRYLVLSYGYWGQGTQVTVSS” the value was “low polyreactivity”.
“QVQLVESGGGIVQAGGSLRLICAASVITLVLYAMVWYRQAPGKERELLAAISSSGGSTYYADSVKGRFTISRDNAKNTVYLQMTSLKPEDTAVYYCNVTPDWNARRPFDYWGQGTQVTVSS”: the “polyreactivity (PSR sort gate)” value is “high polyreactivity”.
For “QVQLVESGGGIVQAGGSLRLRCAASGYTFEDNDMGLYRQAPGKERELVAAISVNGGSTYYADSVKGRFTISRDNAKKTVYLQMNSLKPVDTAVFYCNVDTLIGSLYGYDYWGQGTQVTVSS”, the “polyreactivity (PSR sort gate)” value is listed as “high polyreactivity”.
For the sequence “QVQLVESGGGIVQAGGSLRLRCAATASIYVHYAMGWYIQAPGKETDLVAAIRWRGGSTNYADSVKGRFTISRDNAKNTVDLQMNSLKQEDTAVSYCNARHPASGDLYRMDYWGPGTQVTVSS”, the “polyreactivity (PSR sort gate)” value was “low polyreactivity”.
As for “QVQLVESGGGIVQAGGSLRLSCAASGFIFDVYAMGWYRQAPGKERELVAAISRSGGSTYYADSVKGRFTISRDNAKNTVYLQMNSLKPEDTAVYYCATDLLNNVDYDYWGQGTQVTVSS”, the “polyreactivity (PSR sort gate)” value is given as “low polyreactivity”.

(Values after the nanobody polyreactivity screen of Harvey et al. (2022).)
